B1: H chain humanized version i/L chain humanized version b antibody (antibody, IgG4, V domains shown)
VH: QVQLLESGAVLARPGTSVKISCKASGFNIKDYYMHWVKQRPGQGLEWIGGNDPANGHSMYDPKFQGRVTITADTSTSTAYMELRSLRSDDTAVYYCARDSGYAMDYWGQGTLVTVSS
VL: DIQMTQSPSSLSASVGDRVTITCKASQDIKSFLSWYQQKPGKAPKLLIYYATSLADGVPSRFSGSGSGTDYTLTISSLQPEDFATYYCLQHGESPYTFGGGTKVEIK
B2: H chain humanized version i/L chain humanized version b2 antibody (antibody, IgG4, V domains shown)
VH: QVQLLESGAVLARPGTSVKISCKASGFNIKDYYMHWVKQRPGQGLEWIGGNDPANGHSMYDPKFQGRVTITADTSTSTAYMELRSLRSDDTAVYYCARDSGYAMDYWGQGTLVTVSS
VL: DIQMTQSPSSLSASVGDRVTITCKASQDIKSFLSWYQQKPEKAPKSLIYYATSLADGVPSRFSGSGSGTDYTLTISSLQPEDFATYYCLQHGESPYTFGGGTKVEIK
notes: also called i-b2; ib2
B3: H chain humanized version b/L chain humanized version a antibody (antibody, IgG4, V domains shown)
VH: QVQLLESGAVLARPGTSVKISCKASGFNIKDYYMHWVKQRPGQGLEWIGGNDPANGHSMYDPKFQGRVTITADTSTNTAYMELSSLRSEDTAIYYCARDSGYAMDYWGQGTLVTVSS
VL: DIQMTQSPSSLSASVGDRVTITCKASQDIKSFLSWYQQKPGKAPKLLIYYATSLADGVPSRFSGSGSGTDFTLTISSLQPEDFATYYCLQHGESPYTFGGGTKVEIK
notes: also called b-a
B4: H chain humanized version i/L chain chimeric antibody (antibody, IgG4, V domains shown)
VH: QVQLLESGAVLARPGTSVKISCKASGFNIKDYYMHWVKQRPGQGLEWIGGNDPANGHSMYDPKFQGRVTITADTSTSTAYMELRSLRSDDTAVYYCARDSGYAMDYWGQGTLVTVSS
VL: DIKMTQSPSSMYASLGERVTITCKASQDIKSFLSWYQQKPWKSPKTLIYYATSLADGVPSRFSGSGSGQDYSLTINNLESDDTATYYCLQHGESPYTFGGGTKLEIK
notes: L chain V region is that of mouse ATR-5; also called i-ch
B5: H chain humanized version g/L chain humanized version b antibody (antibody, IgG4, V domains shown)
VH: QVQLLESGAVLARPGTSVKISCKASGFNIKDYYMHWVKQRPGQGLEWIGGNDPANGHSMYDPKFQGKATLTADESSSTAYMQLSSLRSEDSAVYSCARDSGYAMDYWGQGTLVTVSS
VL: DIQMTQSPSSLSASVGDRVTITCKASQDIKSFLSWYQQKPGKAPKLLIYYATSLADGVPSRFSGSGSGTDYTLTISSLQPEDFATYYCLQHGESPYTFGGGTKVEIK
notes: also called g-b
B6: H chain humanized version d/L chain humanized version b antibody (antibody, IgG4, V domains shown)
VH: QVQLLESGAVLARPGTSVKISCKASGFNIKDYYMHWVKQRPGQGLEWIGGNDPANGHSMYDPKFQGRVTITADESTSTAYMELSSLRSEDSAVYFCARDSGYAMDYWGQGTLVTVSS
VL: DIQMTQSPSSLSASVGDRVTITCKASQDIKSFLSWYQQKPGKAPKLLIYYATSLADGVPSRFSGSGSGTDYTLTISSLQPEDFATYYCLQHGESPYTFGGGTKVEIK
notes: also called d-b
B7: H chain humanized version e/L chain chimeric antibody (antibody, IgG4, V domains shown)
VH: QVQLLESGAVLARPGTSVKISCKASGFNIKDYYMHWVKQRPGQGLEWIGGNDPANGHSMYDPKFQGRVSITADESTKIAYMELNSLRSEDTAVYFCARDSGYAMDYWGQGTLVTVSS
VL: DIKMTQSPSSMYASLGERVTITCKASQDIKSFLSWYQQKPWKSPKTLIYYATSLADGVPSRFSGSGSGQDYSLTINNLESDDTATYYCLQHGESPYTFGGGTKLEIK
notes: L chain V region is that of mouse ATR-5; also called e-ch
B8: H chain humanized version i/L chain humanized version b1 antibody (antibody, IgG4, V domains shown)
VH: QVQLLESGAVLARPGTSVKISCKASGFNIKDYYMHWVKQRPGQGLEWIGGNDPANGHSMYDPKFQGRVTITADTSTSTAYMELRSLRSDDTAVYYCARDSGYAMDYWGQGTLVTVSS
VL: DIQMTQSPSSLSASVGDRVTITCKASQDIKSFLSWFQQKPGKSPKTLIYYATSLADGVPSRFSGSGSGTDYTLTISSLQPEDFATYYCLQHGESPYTFGGGTKVEIK
notes: also called i-b1
B9: H chain humanized version j/L chain chimeric antibody (antibody, IgG4, V domains shown)
VH: QVQLLESGAVLARPGTSVKISCKASGFNIKDYYMHWVKQRPGQGLEWIGGNDPANGHSMYDPKFQGRVTFTADTSANTAYMELRSLRSADTAVYYCARDSGYAMDYWGQGTLVTVSS
VL: DIKMTQSPSSMYASLGERVTITCKASQDIKSFLSWYQQKPWKSPKTLIYYATSLADGVPSRFSGSGSGQDYSLTINNLESDDTATYYCLQHGESPYTFGGGTKLEIK
notes: L chain V region is that of mouse ATR-5; also called j-ch
B10: H chain humanized version d/L chain chimeric antibody (antibody, IgG4, V domains shown)
VH: QVQLLESGAVLARPGTSVKISCKASGFNIKDYYMHWVKQRPGQGLEWIGGNDPANGHSMYDPKFQGRVTITADESTSTAYMELSSLRSEDSAVYFCARDSGYAMDYWGQGTLVTVSS
VL: DIKMTQSPSSMYASLGERVTITCKASQDIKSFLSWYQQKPWKSPKTLIYYATSLADGVPSRFSGSGSGQDYSLTINNLESDDTATYYCLQHGESPYTFGGGTKLEIK
notes: L chain V region is that of mouse ATR-5; also called d-ch
B11: H chain humanized version b/L chain chimeric antibody (antibody, IgG4, V domains shown)
VH: QVQLLESGAVLARPGTSVKISCKASGFNIKDYYMHWVKQRPGQGLEWIGGNDPANGHSMYDPKFQGRVTITADTSTNTAYMELSSLRSEDTAIYYCARDSGYAMDYWGQGTLVTVSS
VL: DIKMTQSPSSMYASLGERVTITCKASQDIKSFLSWYQQKPWKSPKTLIYYATSLADGVPSRFSGSGSGQDYSLTINNLESDDTATYYCLQHGESPYTFGGGTKLEIK
notes: L chain V region is that of mouse ATR-5; also called b-ch
B12: H chain chimeric/L chain humanized version b1 antibody (antibody, IgG4, V domains shown)
VH: EVQLQQSGTNLVRPGALVKLSCKGSGFNIKDYYMHWVKQRPEQGLEWIGGNDPANGHSMYDPKFQGKASITADTSSNTAYLQLSSLTSEDTAVYFCARDSGYAMDYWGQGTSVTVSS
VL: DIQMTQSPSSLSASVGDRVTITCKASQDIKSFLSWFQQKPGKSPKTLIYYATSLADGVPSRFSGSGSGTDYTLTISSLQPEDFATYYCLQHGESPYTFGGGTKVEIK
notes: H chain V region is that of mouse ATR-5; also called ch-b1
B13: H chain humanized version j/L chain humanized version b antibody (antibody, IgG4, V domains shown)
VH: QVQLLESGAVLARPGTSVKISCKASGFNIKDYYMHWVKQRPGQGLEWIGGNDPANGHSMYDPKFQGRVTFTADTSANTAYMELRSLRSADTAVYYCARDSGYAMDYWGQGTLVTVSS
VL: DIQMTQSPSSLSASVGDRVTITCKASQDIKSFLSWYQQKPGKAPKLLIYYATSLADGVPSRFSGSGSGTDYTLTISSLQPEDFATYYCLQHGESPYTFGGGTKVEIK
notes: also called j-b
B14: H chain chimeric/L chain humanized version b2 antibody (antibody, IgG4, V domains shown)
VH: EVQLQQSGTNLVRPGALVKLSCKGSGFNIKDYYMHWVKQRPEQGLEWIGGNDPANGHSMYDPKFQGKASITADTSSNTAYLQLSSLTSEDTAVYFCARDSGYAMDYWGQGTSVTVSS
VL: DIQMTQSPSSLSASVGDRVTITCKASQDIKSFLSWYQQKPEKAPKSLIYYATSLADGVPSRFSGSGSGTDYTLTISSLQPEDFATYYCLQHGESPYTFGGGTKVEIK
notes: H chain V region is that of mouse ATR-5; also called ch-b2
B15: H chain humanized version c/L chain chimeric antibody (antibody, IgG4, V domains shown)
VH: QVQLLESGAVLARPGTSVKISCKASGFNIKDYYMHWVKQRPGQGLEWIGGNDPANGHSMYDPKFQGRVTMLVDTSKNQFSLRLSSVTAADTAVYYCARDSGYAMDYWGQGTLVTVSS
VL: DIKMTQSPSSMYASLGERVTITCKASQDIKSFLSWYQQKPWKSPKTLIYYATSLADGVPSRFSGSGSGQDYSLTINNLESDDTATYYCLQHGESPYTFGGGTKLEIK
notes: L chain V region is that of mouse ATR-5; also called c-ch
B16: H chain chimeric/L chain humanized version b antibody (antibody, IgG4, V domains shown)
VH: EVQLQQSGTNLVRPGALVKLSCKGSGFNIKDYYMHWVKQRPEQGLEWIGGNDPANGHSMYDPKFQGKASITADTSSNTAYLQLSSLTSEDTAVYFCARDSGYAMDYWGQGTSVTVSS
VL: DIQMTQSPSSLSASVGDRVTITCKASQDIKSFLSWYQQKPGKAPKLLIYYATSLADGVPSRFSGSGSGTDYTLTISSLQPEDFATYYCLQHGESPYTFGGGTKVEIK
notes: H chain V region is that of mouse ATR-5; also called ch-b

What follows are binders tested against T1, soluble human TF (human TF 1-219 with the FLAG peptide linked to the C-terminal) (human, UniProt P13726 33-251) (assay: BIACORE; antibody captured on Protein G chip, soluble TF as analyte; mean ± SD, n = 3).
T1 construct: Entry is the whole soluble construct (TF 1-219 followed by FLAG peptide M2); also called soluble TF; shTF
T1 sequence (P13726 other isoform, or with tags, fused parts or gaps limits assumed): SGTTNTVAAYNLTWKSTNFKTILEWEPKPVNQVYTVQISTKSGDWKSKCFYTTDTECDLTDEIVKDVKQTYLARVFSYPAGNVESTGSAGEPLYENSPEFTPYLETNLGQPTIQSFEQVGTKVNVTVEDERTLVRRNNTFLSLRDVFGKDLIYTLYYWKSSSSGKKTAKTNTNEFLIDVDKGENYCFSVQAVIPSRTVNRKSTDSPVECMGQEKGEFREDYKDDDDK
Method: Kinetic analysis of the antigen-antibody reaction was carried out using BIACORE. The recombinant Protein G was immobilized on a sensor chip, to which the antibody was coupled. The purified recombinant TF (a soluble TF in which the FLAG peptide was tagged at 1-219) was used as the antigen, and the-soluble TF prepared at various concentrations were used as analytes. From the sensorgram obtained, kinetic parameters (dissociation rate constants kdiss, and binding rate constants kass) were calculated.
As the running buffer, the HBS-EP buffer was used. Ten μl Of […] antibody solution was injected at a flow rate of 20 μl/min to immobilize antibody. The antibody was diluted with the HBS-EP buffer. Forty μl Of the soluble human TF solution at various concentrations were injected at a flow rate of 30 μl/min thereto. In the analysis, 80 seconds for injection was set as the binding phase and then changed to the HBS-EP buffer to set the dissociation phase of 120 seconds. After the dissociation phase was over, 10 μl of 20 mM hydrochloric acid was injected to reconstitute the sensor chip. The binding, dissociation, and reconstitution were set as one cycle, and the sensorgram was obtained for each antibody. The soluble human TF solution was prepared at concentrations of 250 nM, 125 nM, 62.5 nM, 31.3 nM, 15.6 nM, 7.81 nM, and 3.91 nM using the HBS-EP buffer. As the blank, the sensorgram obtained by injecting the HBS-EP buffer used for dilution was used.
The data file of interest was read in, and the comparison of reaction patterns by superscription was made using as the baseline the sensorgram of the HBS-EP buffer. Furthermore, using an analytical application software "BIAevaluation 2.1" (Pharmacia) exclusively for BIACORE that calculates kinetic parameters (binding rate constants kass and dissociation rate constants kdiss) by curve-fitting, kinetic analysis of interaction was performed. In order to determine the binding rate constants kass, the analysis model type 4 was used (BIAevaluation 2.1 Software Hand book, A1-A5). Based on the values calculated from each flow cell, kinetic parameters for each antibody were obtained.
A Kd of 1.39 nM, a koff of 0.000649 s⁻¹ and a kon of 467000 M⁻¹ s⁻¹ were found for B1 in this work.
A Kd of 1.17 nM, a koff of 0.000635 s⁻¹ and a kon of 544000 M⁻¹ s⁻¹ were found for B2 in this work.

The binders below were run against TF/Factor VIIa complex (human, UniProt P13726 33-295; P08709 61-466) (assay: cell-based or functional assay).
Chain of TF/Factor VIIa complex (P13726 33-295 limits assumed, chain 1 of 2): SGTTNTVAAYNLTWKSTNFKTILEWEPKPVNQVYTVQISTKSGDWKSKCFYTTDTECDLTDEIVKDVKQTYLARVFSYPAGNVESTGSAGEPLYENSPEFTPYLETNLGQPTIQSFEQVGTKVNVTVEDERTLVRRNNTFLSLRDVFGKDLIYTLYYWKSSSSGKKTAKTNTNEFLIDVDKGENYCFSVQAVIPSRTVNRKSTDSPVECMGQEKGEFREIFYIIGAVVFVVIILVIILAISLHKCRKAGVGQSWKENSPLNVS
Chain of TF/Factor VIIa complex (P08709 61-466 limits assumed, chain 2 of 2): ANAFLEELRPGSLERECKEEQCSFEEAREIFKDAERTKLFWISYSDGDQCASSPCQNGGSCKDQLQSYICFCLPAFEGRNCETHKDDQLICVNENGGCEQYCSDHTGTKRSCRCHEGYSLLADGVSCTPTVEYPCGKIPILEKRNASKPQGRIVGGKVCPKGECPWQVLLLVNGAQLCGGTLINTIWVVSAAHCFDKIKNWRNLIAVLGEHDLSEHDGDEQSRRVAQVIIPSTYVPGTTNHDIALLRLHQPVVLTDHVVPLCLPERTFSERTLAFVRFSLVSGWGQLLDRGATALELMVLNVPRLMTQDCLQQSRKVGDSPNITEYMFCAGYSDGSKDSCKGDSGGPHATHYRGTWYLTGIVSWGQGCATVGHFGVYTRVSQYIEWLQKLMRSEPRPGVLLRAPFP
B1 was tested, and the “IC50 (read off the curve)” value was roughly 0.1 µg/mL.
B2 was tested, and the “IC50 (read off the curve)” value was roughly 0.06 µg/mL.

Each binder was assayed against T2, human tissue factor (TF) on human bladder carcinoma cells J82 (human, UniProt P13726 33-295) (assay: cell ELISA on paraformaldehyde-fixed J82 cells; AP-conjugated goat anti-human IgGγ; absorbance 405/655 nm).
T2 construct: whole, on cells; also called the antigen; J82 cells
T2 sequence (P13726 33-295): as the sequence (P13726 33-295 limits assumed, chain 1 of 2) above
Method: (§1) Cell ELISA plates for measurement of antigen binding were prepared as follows. Cells used were human bladder carcinoma cells J82 (ATCC HTB-1). To 60 wells of a 96-well cell culture plate, 1 ×10^5 J82 cells were inoculated. This was cultured (RPMI1640 medium containing 10% fetal bovine serum (GIBCO)) for one day in a CO_2 incubator to allow the cells to be attached thereto. After discarding the culture liquid, each well was washed twice with 300 μl PBS. 100 μl of PBS containing 4% paraformaldehyde (hereinafter referred to as PFA/PBS) was added to each well, and placed on ice for 10 minutes to immobilize the cells.
(§2) PFA/PBS was discarded, and each well was washed twice with 300 μl of PBS, and then blocked with 250 μl of DB. The culture supernatant or purified antibody was serially diluted with DB, 100 μl of which was added to each well. After incubating at room temperature for 2 hours followed by washing with RB, 100 μl of alkaline phosphatase-conjugated goat anti-human IgGγ antibody (BioSource) diluted 1000-fold with DB was added. After incubating for 1 hour followed by washing with RB, the substrate solution was added, and then absorbance at 405/655 nm was measured using the Microplate Reader (Bio-Rad).
For B3, the “EC50 (read off the curve)” value was roughly 100 ng/mL.
B4: binds.
In the case of B5, the “EC50 (read off the curve)” value is reported as roughly 40 ng/mL.
B6: binds.
In the case of B7, the “EC50 (read off the curve)” value is reported as roughly 50 ng/mL.
B8: binds.
B9: binds.
For B10, the “EC50 (read off the curve)” value was roughly 70 ng/mL.
With B11 the “EC50 (read off the curve)” value was roughly 100 ng/mL.
B12: binds.
B13: binds.
B14: binds.
B15 was tested, and the “EC50 (read off the curve)” value was roughly 90 ng/mL.

Biological target: T2, human tissue factor (TF) on human …
Test: as above
Remark: another data set of the same source
Method: as §1, §2
In the case of B16, the “EC50 (read off the curve)” value is reported as roughly 80 ng/mL.

Source: patent US7494647 (Chugai, dated 2009)
